Data set [1] addresses T1, Rhau55 (N-terminal fragment of RHAU/DHX36) (UniProt Q9H2U1 SEQ:3-55).
T1 sequence: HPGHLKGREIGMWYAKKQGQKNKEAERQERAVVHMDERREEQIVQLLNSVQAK
Put plainly: EMSA; RNA G4; 70 mM KCl, 20 mM phosphate pH 6.8. The following applies: tags: expressed in E. coli; parallel RNA G4. As for the experimental part:
(§1) The ratio between Rhau55 and Nucleic acids is indicated on top of each lane. DNA concentrations were fixed at 100 μM, in 70 mM KCL and 20 mM phosphate buffer (pH=6.8).

Data set [2] deals with T1, Rhau55 (N-terminal fragment of …). The data set is described as follows: EMSA; 70 mM KCl, 20 mM phosphate pH 6.8. The following applies: tags: expressed in E. coli. On the procedure:
as §1

The target is the same in data set [3]. Put plainly: NMR imino protons, mixture with T95_2T; only T95_2T peaks affected. The following applies: tags: expressed in E. coli; non-parallel G4 form 1.
Data set [4] has the same target. Put plainly: EMSA; 70 mM KCl, 20 mM phosphate pH 6.8, room temperature. The following applies: tags: expressed in E. coli; parallel (propeller) G4.

Experimental findings from patent US20160115201, “PEPTIDES BINDING TO PARALLEL-STRANDED G-QUADRUPLEXES” (NANYANG TECHNOLOGICAL UNIVERSITY, published 2016) are described below.

B1: TERC18 (ssRNA)
RNA: GGGUUGCGGAGGGUGGGC
Turning to B1, the binding result in data set [1] was “binds”.

B2: CEB25 (structured_DNA)
DNA: AAGGGTGGGTGTAAGTGTGGGTGGGT
With B2, the binding result in data set [2] (parallel G4) is recorded as “binds”.

B3: HT1 (structured_DNA)
DNA: TTGGGTTAGGGTTAGGGTTAGGGA
Take B3: the binding result in data set [3] was “no binding”.

B4: T95_2T (structured_DNA)
DNA: TTGGGTGGGTGGGTGGGT
For the molecule B4, binding in data set [4] was put at a Kd of 989 nM.

B5: Pu24T (structured_DNA)
DNA: TGAGGGTGGTGAGGGTGGGGA
On to B5, for which the binding result in data set [2] (parallel G4) is on record as “binds”.

B6: 93del (structured_DNA)
DNA: GGGGTGGGAGGAGGGT
Take B6: in data set [2] (interlocked dimeric parallel G4), the binding result is recorded as “binds”.

B7: CEB1 (structured_DNA)
DNA: AGGGGGGAGGGAGGGTGG
For B7, the binding result in data set [2] (parallel G4) is “binds”.

B8: 10-nt TER (ssRNA)
RNA: GGGUUAGGGU
With B8, in data set [1], the binding result was “binds”.

B9: 12-nt TER (ssRNA)
RNA: UAGGGUUAGGGU
As to B9, the binding result in data set [1] is listed as “binds”.
